Three molecules from patent publication US20060240516A1 (ECOLE NORMALE SUPERIEURE DE LYON, published 2006) can be followed below.

Experiment [1] concerns the target T1, LexA alone (bait control) (UniProt P0A7C2 1-202).
T1 construct: also called pLex9
T1 sequence: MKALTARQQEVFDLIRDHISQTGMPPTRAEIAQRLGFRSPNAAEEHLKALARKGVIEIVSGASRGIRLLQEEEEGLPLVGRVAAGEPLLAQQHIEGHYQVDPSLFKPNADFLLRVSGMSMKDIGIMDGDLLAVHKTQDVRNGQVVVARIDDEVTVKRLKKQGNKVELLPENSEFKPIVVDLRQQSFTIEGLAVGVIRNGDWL
In words: two-hybrid test in HeLa cells, SEAP reporter.

For experiment [2], the target named is T1, LexA alone (bait control). In words: yeast two-hybrid, beta-galactosidase filter test; W = white after 6 h.
The target of another experiment is T2, Rev protein of HIV-1 (HIV-1, UniProt P04618 1-116).
T2 construct: also called pSG-Rev
T2 sequence: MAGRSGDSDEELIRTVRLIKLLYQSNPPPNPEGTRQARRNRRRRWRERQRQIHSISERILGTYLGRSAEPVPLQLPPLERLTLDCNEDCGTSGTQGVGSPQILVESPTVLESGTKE
In words: gel retardation of the Rev-RRE RNA complex.

For experiment [3], the target named is T3, GST-Rev fusion protein produced in bacteria (HIV-1, UniProt P04618 1-116).
T3 construct: also called GXT-Rev
T3 sequence: T2 sequence
In words: GST-Rev on glutathione-agarose column, elution with glutathione, immunoblot against FLAG. In general terms: A western blot detects proteins with antibodies after separation by electrophoresis.

For ITRRIEMPGRDIPGVDGSILRGCWDPGRKKRRQRRRG (designed binder) [Mammalian prey FLAG-NLS-Vp16 activation domain-heptapeptide-Tat PTD, pSG-FNV-P-T9], in experiment [1], the binding result is given as “no binding”.
For GGGGSITRRIEMPGRDIPGVDGSILRGCWDPGRKKRRQRRRG (designed binder) [Yeast prey GAL4 activation domain-heptapeptide-Tat PTD, clone 9 (LexTat screening)], in experiment [2], the binding result is recorded as “no binding”.

B1: SHPT-8 produced in bacteria (N-terminal FLAG epitope), purified (designed binder)
chain: MSDQEAKPSTEDLGDKKEGEYIKLKVIGQDSSEIHFKVKMTTHLKKLKESYCQRQGVPMNSLRFLFEGQRIADNHTPKELGMEEEDVIEVYQEQTARPPNPKKEIELGGGGSFTMRGVDPGRKKRRQRRRG
notes: also called pFLAG-SUMO-1-P 8
Take B1: the binding result (with Rev protein of HIV-1; in experiment [3]) was “no binding” throughout.
